{
  "source": "paper PMC8437784",
  "about": "(The Journal of Biological Chemistry, 2020)",
  "binders": {"B1": {"name": "Recombinant N-terminal His6-tagged TRF1 (from human) (natural protein, UniProt P54274 1-439, looked up)", "chain": "MAEDVSSAAPSPRGCADGRDADPTEEQMAETERNDEEQFECQELLECQVQVGAPEEEEEEEEDAGLVAEAEAVAAGWMLDFLCLSLCRAFRDGRSEDFRRTRNSAEAIIHGLSSLTACQLRTIYICQFLTRIAAGKTLDAQFENDERITPLESALMIWGSIEKEHDKLHEEIQNLIKIQAIAVCMENGNFKEAEEVFERIFGDPNSHMPFKSKLLMIISQKDTFHSFFQHFSYNHMMEKIKSYVNYVLSEKSSTFLMKAAAKVVESKRTRTITSQDKPSGNDVEMETEANLDTRKSVSDKQSAVTESSEGTVSLLRSHKNLFLSKLQHGTQQQDLNKKERRVGTPQSTKKKKESRRATESRIPVSKSQPVTPEKHRARKRQAWLWEEDKNLRSGVRKYGEGNWSKILLHYKFNNRTSVMLKDRWRTMKKLKLISSDSED"}, "B2": {"name": "N-terminal HA-tagged TIN2S (HA-TIN2S, 1-354 aa) (natural protein, human, UniProt Q9BSI4-2 1-354, looked up)", "chain": "MATPLVAGPAALRFAAAASWQVVRGRCVEHFPRVLEFLRSLRAVAPGLVRYRHHERLCMGLKAKVVVELILQGRPWAQVLKALNHHFPESGPIVRDPKATKQDLRKILEAQETFYQQVKQLSEAPVDLASKLQELEQEYGEPFLAAMEKLLFEYLCQLEKALPTPQAQQLQDVLSWMQPGVSITSSLAWRQYGVDMGWLLPECSVTDSVNLAEPMEQNPPQQQRLALHNPLPKAKPGTHLPQGPSSRTHPEPLAGRHFNLAPLGRRRVQSQWASTRGGHKERPTVMLFPFRNLGSPTQVISKPESKEEHAIYTADLAMGTRAASTGKSKSPCQTLGGRALKENPVDLPATEQKE"}, "B3": {"name": "48 bp telomeric dsDNA, 3 TTAGGG (dsDNA)", "DNA 1": "TTAGGGTTAGGGTTAGGGATGTCCAGCAAGCCAGAATTCGGCAGCGTA", "DNA 2": "TACGCTGCCGAATTCTGGCTTGCTGGACATCCCTAACCCTAACCCTAA"}},
  "key": {"[1]": {"biological_target": "T1, Recombinant N-terminal His6-tagged TRF1 (from human) (human), P54274", "T1 chain": "B1 chain", "experiment": "AFM volume analysis", "details": "remark: other sources report otherwise"}, "[2]": {"biological_target": "T2, N-terminal HA-tagged TIN2L (HA-TIN2L, 1-451 aa) (human, UniProt Q9BSI4-1 1-451)", "T2 sequence (looked up)": "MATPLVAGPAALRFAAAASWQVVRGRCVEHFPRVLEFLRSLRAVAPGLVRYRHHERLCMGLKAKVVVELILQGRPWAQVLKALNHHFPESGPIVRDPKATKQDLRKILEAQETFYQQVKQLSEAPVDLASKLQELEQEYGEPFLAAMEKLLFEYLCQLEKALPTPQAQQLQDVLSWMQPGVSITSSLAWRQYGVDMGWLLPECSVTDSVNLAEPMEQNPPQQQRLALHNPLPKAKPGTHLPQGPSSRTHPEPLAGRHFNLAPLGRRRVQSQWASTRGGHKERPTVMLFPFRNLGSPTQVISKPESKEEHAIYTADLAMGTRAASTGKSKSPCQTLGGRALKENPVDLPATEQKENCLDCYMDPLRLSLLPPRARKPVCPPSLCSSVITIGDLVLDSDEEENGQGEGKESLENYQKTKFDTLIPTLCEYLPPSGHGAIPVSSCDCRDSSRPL", "experiment": "DNA tightrope assay"}, "[3]": {"biological_target": "B1", "experiment": "DNA tightrope assay"}, "TRF1": {"biological_target": "TRF1 (human, UniProt P54274 1-439)", "experiment": "EMSA"}, "TIN2L": {"biological_target": "T3, TIN2L (UniProt Q9BSI4 1-451)", "T3 sequence": "T2 sequence (looked up)", "experiment": "EMSA"}, "TIN2S": {"biological_target": "T4, TIN2S (UniProt Q9BSI4-2 1-354)", "T4 sequence": "B2 chain", "experiment": "EMSA"}, "TRF1;TIN2L": {"biological_target": "TRF1;TIN2L (human;human?, UniProt P54274;Q9BSI4 1-439;1-451, |)", "experiment": "EMSA"}, "TRF1;TIN2S": {"biological_target": "TRF1;TIN2S (human;human?, UniProt P54274;Q9BSI4-2 1-439;1-354, |)", "experiment": "EMSA"}},
  "data": [
    {"binder": "B1", "values": [
      {"measurement": "stoichiometry N", "setting": "[1]", "result": 2},
      {"measurement": "binding result", "setting": "[2]", "result": "binds"}
    ]},
    {"binder": "B2", "values": [
      {"measurement": "binding result", "setting": "[3]", "result": "binds"}
    ]},
    {"binder": "B3", "values": [
      {"measurement": "binding result", "setting": "TRF1", "result": "binds"},
      {"measurement": "binding result", "setting": "TIN2L", "result": "no binding"},
      {"measurement": "binding result", "setting": "TIN2S", "result": "no binding"},
      {"measurement": "binding result", "setting": "TRF1;TIN2L", "result": "binds"},
      {"measurement": "binding result", "setting": "TRF1;TIN2S", "result": "binds"}
    ]}
  ]
}
